Measurements published in patent publication US8541373B2, “BChE albumin fusions for the treatment of cocaine abuse” (priority 2009, dated 2013).
Where “and” joins values, the source holds several entries; their conditions need not be identical. Equal values may be shown once.

Test: AlbuBChE serum pharmacokinetics after single IM dose (ELISA)
Description: The study included a total of 11 naïve, adult male cynomolgus monkeys divided into four dose groups: • a control group of two cynomologus monkeys that only received a single IV dose of cocaine; • three dose groups that were treated with a single IM dose of AlbuBChE at 0.2, 1 or 5 mg/kg. Three naïve, adult male cynomolgus monkeys were used in each dose group. Following AlbuBChE treatment, a 1 mg/kg IV dose of cocaine was administered at 2, 48, 96, 120, and 240 hours after AlbuBChE dose administration.
A single intramuscular (IM) administration of AlbuBChE was administered on study day 1 and blood was collected at the time points outlined in Table 2. Approximately 0.5 mL of whole blood was collected from the femoral vein into serum separate tubes (SST).
Blocking is done with 2% Casein in 1×PBS, 200 μL/well, 2 hours at room temperature. After washing, 100 μL of diluted serum samples are added to the plates along with standards. Standards are generated through 3.64 fold, serial dilution of AlbuBChE from 2000 to 3.1 ng/mL. Serum samples and standards are maintained at 10% serum by dilution with buffer containing pooled cynomolgus monkey serum. A wash step precedes detection with 100 μL of anti-HSA mAb-6502-HRP at 0.04 μg/mL for 1 hour. Wells are washed again, prior to developing with 100 μl of TMB substrate. After 15 minutes, the reaction is terminated with 100 μL/well of 1N H2SO4 and read on SpectraMax plate reader at 450/570 nm. Values for unknown serum samples are calculated by interpolation of standard curve generated by 4-parameter fit of AlbuBChE standards. The limit of quantitation in cynomolgus serum was 21.1 ng/mL.
AlbuBChE pharmacokinetic parameter values were determined using serum concentration-time profiles for individual animals. The computer software WinNonlin Professional (Version 4.0.1 Pharsight Corporation, USA) was used. Specifically the model for non-compartmental analysis with extravascular input was applied. If there were fewer than 3 data points in the terminal phase of the serum concentration curve, a terminal phase half-life and PK parameters derived from the half-life were not calculated for that profile. Parameters analyzed include tmax, Cmax, t1/2, AUC(0-t) and AUC(0-∞) were calculated.

AlbuBChE
AUC % Extrap, individual animals (0.2 mg/kg IM): 19.3% and 18.8% and 14.1%
AUC(0-t), individual animals (0.2 mg/kg IM): 2746 ng·h/mL and 7878 ng·h/mL and 8479 ng·h/mL
AUC(0-∞), individual animals (0.2 mg/kg IM): 3404 ng·h/mL and 9704 ng·h/mL and 9867 ng·h/mL
Cmax, individual animals (0.2 mg/kg IM): 176 ng/mL and 279 ng/mL and 281 ng/mL
Dose Normalized AUC(0-∞) (0.2 mg/kg IM): 38292
Dose Normalized Cmax (0.2 mg/kg IM): 1226
Mean AUC % Extrap (0.2 mg/kg IM): 17.4%
Mean AUC(0-t) (0.2 mg/kg IM): 6368 ng·h/mL
Mean AUC(0-∞) (0.2 mg/kg IM): 7658 ng·h/mL
Mean Cmax (0.2 mg/kg IM): 245 ng/mL
Mean t½ (0.2 mg/kg IM): 27.2 h
Tmax, individual animals (0.2 mg/kg IM): 3 h
t½, individual animals (0.2 mg/kg IM): 15.3 h and 42.1 h and 24.4 h
AlbuBChE serum concentration, individual animals (0.2 mg/kg IM, 1 hr post dose): 37.1 ng/mL and 235.4 ng/mL and 111.0 ng/mL
Mean AlbuBChE serum concentration (0.2 mg/kg IM, 1 hr post dose): 128 ng/mL
AlbuBChE serum concentration, individual animals (0.2 mg/kg IM, 3 hr post dose): 176.1 ng/mL and 278.5 ng/mL and 280.7 ng/mL
Mean AlbuBChE serum concentration (0.2 mg/kg IM, 3 hr post dose): 245 ng/mL
AlbuBChE serum concentration, individual animals (0.2 mg/kg IM, 6 hr post dose): 144.0 ng/mL and 212.1 ng/mL and 272.4 ng/mL
Mean AlbuBChE serum concentration (0.2 mg/kg IM, 6 hr post dose): 210 ng/mL
AlbuBChE serum concentration, individual animals (0.2 mg/kg IM, 12 hr post dose): 88.4 ng/mL and 143.1 ng/mL and 197.9 ng/mL
Mean AlbuBChE serum concentration (0.2 mg/kg IM, 12 hr post dose): 143 ng/mL
AlbuBChE serum concentration, individual animals (0.2 mg/kg IM, 24 hr post dose): 52.3 ng/mL and 95.2 ng/mL and 135.7 ng/mL
Mean AlbuBChE serum concentration (0.2 mg/kg IM, 24 hr post dose): 94.4 ng/mL
AlbuBChE serum concentration, individual animals (0.2 mg/kg IM, 36 hr post dose): 29.8 ng/mL and 68.3 ng/mL and 87.4 ng/mL
Mean AlbuBChE serum concentration (0.2 mg/kg IM, 36 hr post dose): 61.8 ng/mL
AlbuBChE serum concentration, individual animals (0.2 mg/kg IM, 48 hr post dose): <LLOQ and 66.4 ng/mL and 80.7 ng/mL
Mean AlbuBChE serum concentration (0.2 mg/kg IM, 48 hr post dose): 73.6 ng/mL
AlbuBChE serum concentration, individual animals (0.2 mg/kg IM, 72 hr post dose): <LLOQ and 44.5 ng/mL and 39.5 ng/mL
Mean AlbuBChE serum concentration (0.2 mg/kg IM, 72 hr post dose): 42.0 ng/mL
AlbuBChE serum concentration, individual animals (0.2 mg/kg IM, 96 hr post dose): <LLOQ (2×) and 30.1 ng/mL
Mean AlbuBChE serum concentration (0.2 mg/kg IM, 96 hr post dose): <LLOQ
AlbuBChE serum concentration, individual animals (0.2 mg/kg IM, 128 hr post dose): <LLOQ
Mean AlbuBChE serum concentration (0.2 mg/kg IM, 128 hr post dose): <LLOQ
AlbuBChE serum concentration, individual animals (0.2 mg/kg IM, 144 hr post dose): <LLOQ
Mean AlbuBChE serum concentration (0.2 mg/kg IM, 144 hr post dose): <LLOQ
AlbuBChE serum concentration, individual animals (0.2 mg/kg IM, 168 hr post dose): <LLOQ
Mean AlbuBChE serum concentration (0.2 mg/kg IM, 168 hr post dose): <LLOQ
AlbuBChE serum concentration, individual animals (0.2 mg/kg IM, 216 hr post dose): <LLOQ
Mean AlbuBChE serum concentration (0.2 mg/kg IM, 216 hr post dose): <LLOQ
AlbuBChE serum concentration, individual animals (0.2 mg/kg IM, 264 hr post dose): <LLOQ
Mean AlbuBChE serum concentration (0.2 mg/kg IM, 264 hr post dose): <LLOQ
tmax (0.2 mg/kg IM, group value): 3 h
AUC % Extrap, individual animals (1 mg/kg IM): 2.54% and 3.67% and 2.90%
AUC(0-t), individual animals (1 mg/kg IM): 43128 ng·h/mL and 51298 ng·h/mL and 46185 ng·h/mL
AUC(0-∞), individual animals (1 mg/kg IM): 44251 ng·h/mL and 53255 ng·h/mL and 47564 ng·h/mL
Cmax, individual animals (1 mg/kg IM): 1666 ng/mL and 1374 ng/mL and 1956 ng/mL
Tmax, individual animals (1 mg/kg IM): 3 h
t½, individual animals (1 mg/kg IM): 28.4 h and 34.3 h and 30.3 h
Dose Normalized AUC(0-∞) (1.0 mg/kg IM): 48357
Dose Normalized Cmax (1.0 mg/kg IM): 1665
Mean AUC % Extrap (1.0 mg/kg IM): 3.04%
Mean AUC(0-t) (1.0 mg/kg IM): 46871 ng·h/mL
Mean AUC(0-∞) (1.0 mg/kg IM): 48357 ng·h/mL
Mean Cmax (1.0 mg/kg IM): 1665 ng/mL
Mean t½ (1.0 mg/kg IM): 31 h
AlbuBChE serum concentration, individual animals (1.0 mg/kg IM, 1 hr post dose): 1058.9 ng/mL and 462.4 ng/mL and 1598.6 ng/mL
Mean AlbuBChE serum concentration (1.0 mg/kg IM, 1 hr post dose): 1040 ng/mL
AlbuBChE serum concentration, individual animals (1.0 mg/kg IM, 3 hr post dose): 1665.5 ng/mL and 1374.0 ng/mL and 1956.0 ng/mL
Mean AlbuBChE serum concentration (1.0 mg/kg IM, 3 hr post dose): 1665 ng/mL
AlbuBChE serum concentration, individual animals (1.0 mg/kg IM, 6 hr post dose): 1269.3 ng/mL and 1266.3 ng/mL and 1596.1 ng/mL
Mean AlbuBChE serum concentration (1.0 mg/kg IM, 6 hr post dose): 1377 ng/mL
AlbuBChE serum concentration, individual animals (1.0 mg/kg IM, 12 hr post dose): 884.3 ng/mL and 968.1 ng/mL and 1049.5 ng/mL
Mean AlbuBChE serum concentration (1.0 mg/kg IM, 12 hr post dose): 967 ng/mL
